# Data published in the supplement of paper PMC9170038.
# System: MS2 coat protein
# Test: apparent KD of MS2 coat protein; designed switch direction (-1 OFF switch, 1 ON switch): -1; higher = weaker reporter binding
# Method in brief: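 Stalled E. coli RNA polymerase transcribed designed RNA switches on Illumina chips, which were then titrated with SNAP-549-labelled MS2 coat protein, doubling from 0.7 or 1.5 nM to 3 µM. Steps lasted from 0.8–1.5 h at the lowest concentration to 10–20 min at the highest. The apparent KD is each design's median over clusters of curve-fitted normalised fluorescence.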
# [1] = Eterna round: R95, input ligand: FMN 200 uM
# [2] = Eterna round: R95, input ligand: microRNA oligo, concentration not stated
# [3] = Eterna round: R95, input ligand: none
# [4] = input ligand: microRNA oligo, concentration not stated
Sequence,apparent KD of MS2 coat protein (input ligand: FMN 200 uM) [nM],apparent KD of MS2 coat protein (input ligand: none) [nM],apparent KD of MS2 coat protein [1] [nM],apparent KD of MS2 coat protein [2] [nM],apparent KD of MS2 coat protein [3] [nM],apparent KD of MS2 coat protein [4] [nM]
"GAUUAACAUGAGGAUCACCCAUGUGAGGAUAUGGACUUGCCCACUUACCCAUUAGAGUCUAGAAGGCGCAUCUG [1986#23] (Eterna round: R97, puzzle: Exclusion 1)",48.4,49.8,,,,
"CCGAAGCUAGGAUAUACAUGAGGAUCACCCAUGUAAUCUCAUUUACGGGUCGGGCGCAGUAGAAGGAGCAAAGU [EX3 B.17] (Eterna round: R97, puzzle: Exclusion 3)",17.5,15.6,,,,
"CCAUAGUGAGGAUAUGUAAACGUGUUGGCGAAAUCAGCACGGCAGAAGGCACAUGAGGAUCACCCAUGUCCUGA [Eternabot (L2) Solution 45] (Eterna round: R97, puzzle: Exclusion 4)",25.9,20.8,,,,
"UAUUAGCAAGUGAGAUCCGACAUGAGGAUCACCCAUGUGCUCGUCUUAUAAGGUAAUAUGACAAAAGUCAUAUUACC [Elimod 5 - Jieux - Sensor, turn-off variant 1] (Eterna round: R97, puzzle: Sensor, turn-off variant 1)",301,293,,,,
"CUGAGGUAGCGGUCCUAUGACAUGAGGAUCACCCAUGUACCUUGCUUCGAGCUUAUUGCUCGUCUUAUGAUUCUCGG [Mat - Sensor v3 - turn-off var 1 - JL Mod - D33] (puzzle: Sensor v3, turn-off variant 1)",,,551,714,613,
CCGCAUAAGCAGGAUAUCGUAUCGGAUACGAUACGAGAAGGGUUUACAUGAGGAUCACCCAUGUUCCUUAGCGG [Fiskers Ex 6 - 31] (puzzle: Exclusion 6),,,,26.2,,
"ACCCUCCCGCAGGAUAUAAUAAAGUGGUACUUAUUAGAAGGGCGUACAUGAGGAUCACCCAUGUCGUGACGUGC [Eternabot (L1) Solution 5] (Eterna round: R97, puzzle: Exclusion 6)",25.5,25.9,,,,
"UUUCUCUGGGCGUCUUCUUACAUGAGGAUCACCCAUGUUUCAUAGGAUAUGCUAUAGUGUUACAUGCAGAAGGAUGUUUGUUUU [JR_ExcNG3_Sub080] (Eterna round: R96, puzzle: Exclusion NG 3)",,,,,,189
"GGCUGACAUGUAGGAUAUCUGCACGUGUAGUGCAGAGAAGGACAUGAGGAUCACCCAUGUAUAGCGACUUCGGUCGCAACAGCC [ENG1/2-A3] (Eterna round: R96, puzzle: Exclusion NG 1)",,,,,,35.9
"CCCAGUUAGAGAGGAUAUCUUACAUGAGGAUCACCCAUGUAAUAAAUGAGGAUUUCGGGUGUCUAAGAGAAGGCUCGGAUAGGC [Ostracism 29 - Jieux - Exclusion NG 2] (Eterna round: R96, puzzle: Exclusion NG 2)",37.9,26.4,,,,15.3
"CAACGAUGAGGAUAUACAUGAGGAUCACCCAUGUGGUCCAGCAGCCAUUACGGCGAAGGUAGAAGGCGUUAUUA [Eternabot (L2) Solution 54] (Eterna round: R97, puzzle: Exclusion 3)",349,386,,,,
"CUGUUUUUCGCAGGAUAUGCUCCUCCUUUAUUUGCAGAAGGGCGUUAAACAUGAGGAUCACCCAUGUAUGGUAAUGACUUUUUC [JR_ExcNG1_Sub064] (Eterna round: R96, puzzle: Exclusion NG 1)",,,,,,16.9
CCUGCACAUGAGGAUCACCCAUGUCAGGAUAUCUCGCCGUCGGCUUGCCGACGGUAUUAGAGAAGGGACAAGGG [JL Tixe mod 2] (puzzle: Exclusion 1),,,,21.9,,
"GGUAAAGGCCGAGGAUAUCGGAAAGGAAGUGUACGAGAAGGCGGCAAAAGAACAUGAGGAUCACCCAUGUGGGCCGAUCUUCCG [16th something] (Eterna round: R96, puzzle: Exclusion NG 1)",23.6,18,,,,16.8
AAGCGCGUAGGAUAUACAUGAGGAUCACCCAUGUGAGGAAGGAGUAGGAAGUGUGGAAGUAGAAGGACGGAGAG [JR_Exclu3_Sub077] (puzzle: Exclusion 3),,,34.4,31.1,37.4,
UUUUAACAUGAGGAUCACCCAUGUGAGGAUAUCGAAAUUUAUAUUUAUAUUUAUAAAACGAGAAGGCACAUUUU [JMF 91] (puzzle: Exclusion 1),,,,113,,
AUGAGGUUAGGAUAUACAUGAGGAUCACCCAUGUUGGAGAAGGAAAUGUAAGUAGCGAGUAGAAGGAACGGAGC [JR_Exclu3_Sub059] (puzzle: Exclusion 3),,,,44.1,,

Sequence,apparent KD of MS2 coat protein (input ligand: FMN 200 uM) [nM],apparent KD of MS2 coat protein (input ligand: none) [nM],apparent KD of MS2 coat protein [1] [nM],apparent KD of MS2 coat protein [2] [nM],apparent KD of MS2 coat protein [3] [nM],apparent KD of MS2 coat protein [4] [nM]
"AAUAACAAUGUGAGGAUAUCUAGAGCUUCGGCUCUAGAGAAGGCACAUGAGGAUCACCCAUGUCUCAAUAACAA [BmEx4/2-E6] (Eterna round: R97, puzzle: Brourd's mod of Exclusion 4)",339,54.6,,,,
"UUUGAUUGCACAGGAUAUUGUCAUUUGAGUUGUCAAGAAGGGUGUACAUGAGGAUCACCCAUGUUAUGCUUUCCUCGCUCACUU [JR_ExcNG1_Sub009] (Eterna round: R96, puzzle: Exclusion NG 1)",15.5,20,,,,12.8
"UAUUGUAGACAGGAUAUCUAUCGGGUAACCCGAAGAGAAGGGUCUACAUGAGGAUCACCCAUGUGGCCCGUUUU [EX6 B.29] (Eterna round: R97, puzzle: Exclusion 6)",42,21.5,,,,
"GCAGCAUAUGUAGGAUAUCUGCACGUGUAGUGCAGAGAAGGACAUGAGGAUCACCCAUGUAAUUAAGAUCAAUUAUUAAGCUGC [ENG1/4-A3] (Eterna round: R96, puzzle: Exclusion NG 1)",37.7,22.2,,,,17.3
"UAAUGUGCGAGAGGAUAUCGUGUACAAAGUACACGAGAAGGCUUCACAUGAGGAUCACCCAUGUACCGAGGUGAAACACCUUGG [Omei Exc(NG)1 Bv1] (Eterna round: R96, puzzle: Exclusion NG 1)",355,220,,,,171
"ACAUGUCAUUGAGGAUAUUGCACACAUGAGGAUCACCCAUGUAUACGGUUGCUCUUACGUGAGUUCGAGAAGGCGAUGUACAUU [Ex NG2 #88] (Eterna round: R96, puzzle: Exclusion NG 2)",153,181,,,,123
"UACAUGAGGAUCACCCAUGUUUUGUCGUGUAUGGUAUUUAUCUAGGAUAUCAGGUUAUUUAUUUAUGAGAAGGAGAAUAUUAAU [JMF's solution 25] (Eterna round: R96, puzzle: Exclusion NG 3)",33.3,34.3,,,,37.5
CUAGUCCGAGGAUAUAUUAAGUGAAACAUGAGGAUCACCCAUGUUAUUUGAUGGAUGAAAAUAGAAGGCGGACUAG [Mat - Exclusion 5 - JL mod - D60] (puzzle: Exclusion 5),,,27.8,46.9,58.5,
"AGCCAAGCAGGAUAUGCCCGGGAUAACAUGAGGAUCACCCAUGUGACCGAUUGAUGUCCUGCAGAAGGGCUUGGGA [Erxesoan] (Eterna round: R96, puzzle: Exclusion 5)",82.4,16.9,,,,11.4
"AAUAAUCAUGUAGGAUAUGCGUGGCAAAGCUAUGCAGAAGGACAUGAGGAUCACCCAUGUUCUAGCGUCUGAAAACAGAUGCUA [Mat - Exclusion NG 1 - Mod of JL - D83] (Eterna round: R96, puzzle: Exclusion NG 1)",451,44.3,,,,29.5
"UGAGUGCUGCGAGGAUAUACAUGAGGAUCACCCAUGUAAGCCUGUGAGGCUUUGCCUCACAGGAUGUAGAAGGCGCAGUACUCU [JL ENG2 1.17] (Eterna round: R96, puzzle: Exclusion NG 2)",12.5,13.5,,,,9.19
"AUAUAGCGAGGAUAUACAUGAGGAUCACCCAUGUGGUAGUAGAUACGGUAGGGCUAGUGUAGAAGGUGCUAUGA [EX3 #12] (Eterna round: R97, puzzle: Exclusion 3)",450,231,,,,
"CUAUAUUUAGGAUAUGUUCGGCUAGACAUGAGGAUCACCCAUGUGAGCCUAGGAGCAGCCACAGAAGGGAGUAUGU [Eternabot (L2) Solution 62] (Eterna round: R97, puzzle: Exclusion 5)",27.6,32.8,,,,
UUUUAGAGAGGAUAUAUAUUUUAAAACAUGAGGAUCACCCAUGUAAUUUUAUGGGAGUAAAUAGAAGGCUCAUUUA [JMFs Solution 3] (puzzle: Exclusion 5),,,48.7,51,56.3,
"GCAGCUAAUCGAGGAUAUCAGCACGUGUAGUGCUGAGAAGGCGACAUGAGGAUCACCCAUGUGAUCAAUUAAUAUUAAUGCUGC [ENG1/11-A3] (Eterna round: R96, puzzle: Exclusion NG 1)",893,414,,,,308
"GGAUAUAACGUAGGAUAUGAGAGAAACAGACGAUCAGAAGGACGACAUGAGGAUCACCCAUGUGAUCUAUCAAUAUUAUACAUG [Prohibition 97 - Jieux - Exclusion NG 1] (Eterna round: R96, puzzle: Exclusion NG 1)",446,300,,,,180
